{
  "source": "patent US11839630B2",
  "about": "“CAR-T cells targeting IL-1RAP and their use” (ETABLISSEMENT FRANCAIS DU SANG, priority 2017, dated 2023)",
  "molecules": {"B1": {"name": "#E3C3: mouse anti-hIL-1RAP monoclonal antibody subclone generated by standard hybridoma technique; VH SEQ ID NO: 2, VL SEQ ID NO: 4 (antibody, V domains shown)", "VH": "MGWSCIILFLVATATGVNSQVQLQQPGAELMMPGASVKVSCEASGYTFTDSWMHWVKQRPGQGLEWIGAIDPSDSYTTYNQKFTGKATLSVDESSNTAYMQLSSLTSEDSAVYYCARYYSGSNYISPFPYWGQGTLVTVSA", "VL": "MESQIQVFVFVFLWLSGVDGDIVMTQSHKFMSTSVGDRVTITCKASLDVSTAVAWYQQKPGQSPKLLIYSASYRYTGVPDRFTGSGSGTDFTFTISSVQAEDLAVYYCQQHYSPPFTFGSGTNLEIK", "modifications": "Amino acid sequence of chain H (VH) of murine scFv anti-IL-1RAP; Amino acid sequence of chain K (VL) of murine scFv anti-IL-1RAP"}},
  "key": {"IL-1RAP [1]": {"target": "T1, IL-1RAP (Homo sapiens, UniProt Q9NPH3)", "T1 sequence (Q9NPH3 21-570)": "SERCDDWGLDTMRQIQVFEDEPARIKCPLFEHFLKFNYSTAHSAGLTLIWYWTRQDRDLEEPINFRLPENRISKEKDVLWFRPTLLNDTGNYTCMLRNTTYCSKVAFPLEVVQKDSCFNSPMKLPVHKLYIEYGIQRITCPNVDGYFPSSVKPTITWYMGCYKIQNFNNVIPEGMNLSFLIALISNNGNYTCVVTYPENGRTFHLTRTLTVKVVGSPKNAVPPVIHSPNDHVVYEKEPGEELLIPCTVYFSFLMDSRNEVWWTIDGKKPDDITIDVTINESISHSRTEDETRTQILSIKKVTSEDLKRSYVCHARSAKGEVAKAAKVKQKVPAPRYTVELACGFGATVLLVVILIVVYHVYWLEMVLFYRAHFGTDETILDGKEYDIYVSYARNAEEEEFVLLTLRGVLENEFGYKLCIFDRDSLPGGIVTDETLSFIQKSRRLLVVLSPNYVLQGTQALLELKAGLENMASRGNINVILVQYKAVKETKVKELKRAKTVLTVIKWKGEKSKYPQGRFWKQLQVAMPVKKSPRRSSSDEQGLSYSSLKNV", "assay": "Western blot with #E3C3 mAb", "format": "binding", "conditions": "leukemic cell line lysates; #E3C3 diluted 1:10^3", "text": "FIG. 1: Use of #E3C3 mAb in western blot. The leukemic cell lines KU812, KG-1, Nalm-20, Jurkat, and Raji are used. Transfected HT1080 cell line with IL-1RAP cDNA variant was used as control. […] Line a: detection of IL-1RAP (72 kDA), Line b: detection of the control actin (43 kDA), *: weak signal.\nWhole-cell, subcellular or secreted protein fractions of cells listed in example 1 were obtained after sonication and suspended in RIPA lysis and extraction buffer (ThermoFisher Scientific) supplemented with a protease inhibitor cocktail (complete Mini EDTA-free; Roche, Switzerland). Transfected HT1080 cell line with IL-1RAP cDNA variant 1 (NM_002182.2, NCBI) was used as control. […] Transferred proteins on PDVF membranes were probed overnight with either primary IL-1RAP #E3C3 (diluted at 1:10^3), CD3zeta (BD Pharmigen, clone #8D3) or β-actin (1:10^3, clone AC15, #A5441, Sigma-Aldrich) respectively for IL-1RAP, CAR or β-actin expression. Immunodetection staining was performed with a secondary polyclonal antibody sheep anti-mouse IgG (#515-035-062, Jackson, USA). Detection was performed with a camera and Bio-1D software (Vilber-Lourmat, Collegien, France)."}, "IL-1RAP [2]": {"target": "T1, IL-1RAP", "assay": "Confocal microscopy on KU812 and Raji cell lines", "format": "binding", "conditions": "KU812 cells", "experimental": "FIG. 4: KU812 (a) and Raji cells lines (b) stained with Fluorescence mAbs [(left panel: anti murine Fc-IgG; medium panel: IL-1RAP (#E3C3)]. Counterstaining was performed by nuclear stain DAPI and superposed to Fluorescent staining (right panel, merge).\nConfocal microscopy was assessed on KU812 and Raji cells lines concentrated on slides (Superfrost™ Plus, 4951PLUS4, ThermoFisher Scientific) by Cytospin. Briefly, the cells were stained with Fluorescent monoclonal antibodies: anti murine Fc-IgG; IL-1RAP (#E3C3) and were analyzed with an Olympus BX51 microscope equipped with a QImaging Retiga 2000R camera. Digital images were acquired using the 40× objective and digitalized with Image-Pro Plus (version 6.0, Media Cybernetics). Counterstaining was performed by nuclear stain DAPI (2-(4-Amidinophenyl)-6-indolecarbamidine dihydrochloride, Sigma-Aldrich-France) and superposed to fluorescent staining."}, "[3]": {"tested_on": "HMEC-1 endothelial cell line", "assay": "Staining of HMEC-1 dermal endothelial cell line", "format": "binding, human", "conditions": "flow cytometry staining", "text": "FIG. 22: (A) Tissue microarray. Representative #A3C3 staining of an US Food and Drug Administration standard frozen tissue array, including 90 tissue cores (30 organs) of 3 individual donors per organ (US Biomax, Rockville, MD, USA). Immunostaining was detected using the UltraView Universal DAB Detection Kit (Ventana, USA). Images were acquired and analyzed with NDP.view 2.0 software. […] (Scale bars, 100 μm.) High IL-1RAP (KU812)— or negative (Raji)-expressing cell lines were respectively used as positive or negative controls. (B) IL-1RAP R&D (red) or #A3C3 (blue) staining of HMEC-1 dermal endothelial cell line. Isotype IgG1 (gray) is depicted as overlay. RFI is provided for both staining."}, "[4]": {"target": "T2, IL-1RAP recombinant protein (Homo sapiens, UniProt Q9NPH3)", "T2 construct": "recombinant fusion protein consisting of the extra cellular part of IL-1RAP (NM_002182.2, NCBI) and the Fc-part of human IgG1; purchased R&D Systems", "T2 sequence (Q9NPH3 21-367 limits assumed)": "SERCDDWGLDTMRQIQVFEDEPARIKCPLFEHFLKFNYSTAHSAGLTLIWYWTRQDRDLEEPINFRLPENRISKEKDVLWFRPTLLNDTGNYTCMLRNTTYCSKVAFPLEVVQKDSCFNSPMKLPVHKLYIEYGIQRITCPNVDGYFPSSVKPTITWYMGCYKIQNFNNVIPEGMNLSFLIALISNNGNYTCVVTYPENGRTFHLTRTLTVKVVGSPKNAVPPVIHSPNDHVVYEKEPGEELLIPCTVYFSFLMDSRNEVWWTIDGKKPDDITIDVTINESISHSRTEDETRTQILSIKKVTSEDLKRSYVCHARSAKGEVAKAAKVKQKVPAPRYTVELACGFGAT", "assay": "ELISA against recombinant IL-1RAP protein", "format": "binding", "conditions": "BSA negative control", "text": "FIG. 2: recognition of IL-1RAP recombinant protein with #E3C3 mAb by the ELISA technique (b). BSA is the negative control (a).\nAnti-human Fc antibody was coated on a bottom of a plastic ELISA plate."}},
  "data": [
    {"molecule": "B1", "values": [
      {"measurement": "detection in western blot", "setting": "IL-1RAP [1]", "value": "reveals KU812"},
      {"measurement": "staining pattern by confocal microscopy", "setting": "IL-1RAP [2]", "value": "cell membrane staining"},
      {"measurement": "recognition of HMEC-1 cell surface", "setting": "[3]", "value": "not recognized"},
      {"measurement": "recognition of IL-1RAP recombinant protein by ELISA", "setting": "[4]", "value": "recognize the IL-1RAP recombinant protein"}
    ]}
  ]
}
